Kd, koff and kon data for one molecule are collected here from paper PMC3567247 (Biochemistry, 2012).

Common to all, as to experiment: SPR
Background: SPR reads the build-up and loss of mass on a sensor chip optically.

Test [1] deals with T1, Lymphotoxin-α (UniProt P01374 35-205).
T1 sequence (looked up): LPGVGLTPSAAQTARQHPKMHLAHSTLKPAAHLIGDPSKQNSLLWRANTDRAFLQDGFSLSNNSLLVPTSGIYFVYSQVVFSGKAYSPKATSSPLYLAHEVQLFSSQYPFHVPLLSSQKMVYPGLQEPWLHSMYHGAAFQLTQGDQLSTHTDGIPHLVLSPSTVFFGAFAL

For test [2], the target named is T1, Lymphotoxin-α. This is another data set of the same source.
Test [3] deals with T1, Lymphotoxin-α. The source holds these as a separate data set.

A word on the Kd: it is the constant that tells how readily two partners part at equilibrium. Read a high Kd as a looser complex. One may read the koff as the first-order rate constant of dissociation. Low values mean a long-lived complex, high ones a short-lived complex. Usually kon stands for a measure of how fast the partners come together.

Like-named read-outs stand apart in the source and are kept apart here.

B1: Soluble TNFR1 extracellular domain, residues 40-201 (receptor, human, UniProt P19438 40-201, looked up)
chain: RDSVCPQGKYIHPQNNSICCTKCHKGTYLYNDCPGPGQDTDCRECESGSFTASENHLRHCLSCSKCRKEMGQVEISSCTVDRDTVCGCRKNQYRHYWSENLFQCFNCSLCLNGTVHLSCQEKQNTVCTCHAGFFLRENECVSCSNCKKSLECTKLCLPQIEN
In the test with Lymphotoxin-α [1], B1 returned a Kd of 0.057 µM. For the same molecule, in the test with Lymphotoxin-α [2], the affinity, expressed as Kd, was 0.05 ± 0.01 µM. In the test with Lymphotoxin-α [3], this molecule gave a Kd of 0.046 µM, a koff of 0.0092 s⁻¹ and a kon of 170000 M⁻¹ s⁻¹.
